Drawing on US10189877, this text covers ELISA OD for two substances.

For the test, the target named is DSV^4 VLPs (Dengue virus serotypes 1-4; Hepatitis B virus; Hepatitis B virus). The test is described as follows: sandwich ELISA: mAb coated, DSV^4 VLPs added, detected with peroxidase labelled anti-HBsAg. On the technique in general: In an ELISA, binding on a coated surface is turned into a signal by an enzyme label.

Turning to 3H5 (antibody), the ELISA OD amounted to 0.77 OD.
With 4G2 (antibody) the figure was 0.05 OD.
